The Kd is the equilibrium constant for the complex coming apart. A high value points to a looser complex.

Data on three molecules can be found in paper PMC7199733 (Cell, 2020).

Test [1] addresses MERS VHH-55 (His-tagged, mammalian expression) (llama). Description: SPR.
In test [2] the target is DPP4 protein (recombinant, soluble) (UniProt P27487 40-766). Description: BLI. In general terms: In BLI a coated tip is dipped into the sample, and binding shifts an interference pattern.
In a further test the target is MERS-CoV S1 protein (MERS-CoV England1, UniProt K9N5Q8).
A further test addresses MERS-CoV RBD protein (MERS-CoV England1, UniProt K9N5Q8).
Test [3] has as its target MERS-CoV RBD (crystallised, tag and glycans removed) (MERS-CoV England1, UniProt K9N5Q8).

Sequence of MERS-CoV S1 protein (K9N5Q8 18-751): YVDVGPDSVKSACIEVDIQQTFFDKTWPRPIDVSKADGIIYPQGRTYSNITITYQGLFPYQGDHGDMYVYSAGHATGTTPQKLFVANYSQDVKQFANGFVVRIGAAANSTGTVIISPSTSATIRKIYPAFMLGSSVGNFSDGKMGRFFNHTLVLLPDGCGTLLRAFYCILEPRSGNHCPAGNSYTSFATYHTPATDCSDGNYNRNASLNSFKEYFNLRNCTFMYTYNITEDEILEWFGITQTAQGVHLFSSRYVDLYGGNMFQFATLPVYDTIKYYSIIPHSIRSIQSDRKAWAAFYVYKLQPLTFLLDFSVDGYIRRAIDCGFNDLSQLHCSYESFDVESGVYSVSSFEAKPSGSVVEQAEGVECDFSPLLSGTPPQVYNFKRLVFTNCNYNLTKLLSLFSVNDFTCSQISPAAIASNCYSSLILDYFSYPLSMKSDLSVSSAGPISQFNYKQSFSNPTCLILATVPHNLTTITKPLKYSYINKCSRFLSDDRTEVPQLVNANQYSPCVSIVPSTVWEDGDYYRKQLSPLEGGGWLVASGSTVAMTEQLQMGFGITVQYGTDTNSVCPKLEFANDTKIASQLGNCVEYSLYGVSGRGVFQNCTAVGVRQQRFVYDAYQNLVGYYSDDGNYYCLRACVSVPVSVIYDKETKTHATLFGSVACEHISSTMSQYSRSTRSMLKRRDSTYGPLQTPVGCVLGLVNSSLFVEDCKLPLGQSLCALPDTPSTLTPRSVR
Sequence of DPP4 protein (recombinant, soluble) (P27487 40-766): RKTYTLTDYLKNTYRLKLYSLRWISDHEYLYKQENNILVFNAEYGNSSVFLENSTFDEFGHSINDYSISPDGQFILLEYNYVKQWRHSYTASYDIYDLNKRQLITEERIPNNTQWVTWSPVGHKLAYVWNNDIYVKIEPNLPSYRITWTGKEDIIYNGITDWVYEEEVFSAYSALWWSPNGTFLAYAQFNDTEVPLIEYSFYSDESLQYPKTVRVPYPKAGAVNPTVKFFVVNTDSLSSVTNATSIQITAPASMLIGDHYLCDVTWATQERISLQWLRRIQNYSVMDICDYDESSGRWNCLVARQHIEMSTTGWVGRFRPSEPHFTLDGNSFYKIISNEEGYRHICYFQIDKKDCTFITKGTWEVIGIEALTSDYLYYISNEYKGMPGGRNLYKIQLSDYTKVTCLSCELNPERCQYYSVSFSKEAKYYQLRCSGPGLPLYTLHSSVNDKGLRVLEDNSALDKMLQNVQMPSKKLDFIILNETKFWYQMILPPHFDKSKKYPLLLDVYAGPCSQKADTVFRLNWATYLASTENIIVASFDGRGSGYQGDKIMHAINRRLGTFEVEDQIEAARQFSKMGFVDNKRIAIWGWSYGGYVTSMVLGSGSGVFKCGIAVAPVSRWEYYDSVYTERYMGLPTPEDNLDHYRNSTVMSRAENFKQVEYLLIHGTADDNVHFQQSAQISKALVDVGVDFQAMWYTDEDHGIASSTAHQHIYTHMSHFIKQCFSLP

As for “MERS-CoV RBD protein (from UniProt K9N5Q8 367-589) (domain or fragment)”, in test [1], the Kd is 0.0792 nM. This lies in the picomolar range.

B1: Fc-tagged MERS-CoV RBD (domain or fragment)
chain: EAKPSGSVVEQAEGVECDFSPLLSGTPPQVYNFKRLVFTNCNYNLTKLLSLFSVNDFTCSQISPAAIASNCYSSLILDYFSYPLSMKSDLSVSSAGPISQFNYKQSFSNPTCLILATVPHNLTTITKPLKYSYINKCSRFLSDDRTEVPQLVNANQYSPCVSIVPSTVWEDGDYYRKQLSPLEGGGWLVASGSTVAMTEQLQMGFGITVQYGTDTNSVCPKLE
As to B1, in test [2], the binding result is given as “binds”.

B2: MERS VHH-55 (VHH)
VHH: QVQLQESGGGLVQAGGSLRLSCVASGSIFSINAMDWYRQAPGKQRELVAGITSGGSTNYGDFVKGRFTISRDNAKNTVYLQMDSLKPEDTAVYYCAAEVGGWGPPRPDYWGHGTQVTVSS
In the case of B2, the binding result (with MERS-CoV S1 protein; in the test with MERS-CoV RBD protein; in test [3]) was “binds” in each case.
